Measured values published in PMC5816610.

How the values were obtained:
CRP (purified) = test: EMSA; settings: 1x Transcription buffer (composition in cited ref 50), 37 C, 1 pmol DNA, 10 min then 30 min with protein; 5% PAGE in 1xTBE; purified CRP +/-200 uM cAMP …
[1] = biological target: sigma70-RNA polymerase holoenzyme (UniProt P0A7Z4+P0A8V2+P0A8T7+P0A800+P00579); test: EMSA; settings: 1x Transcription buffer (composition in cited ref 50), 37 C, 1 pmol DNA, 10 min then 30 min with protein; 5% PAGE in 1xTBE; purified CRP +/-200 uM cAMP …

| Substance | binding signal (fold vs no cAMP) (CRP (purified)) | binding [1] |
| --- | --- | --- |
| yihU/V intergenic region | 1.3 |  |
| yihV/W intergenic region | 1.3 |  |
| ATTTAACGGCAGCAAGGCTATTCAGCAGTTCGTTCGGGTCAATACCGTCAGCGATCAGCATTTCGCGATATTGCTGCAGTTTACGAGTGCGCTCTTCAACTTC (double strand) [hns internal region without promoters] |  | no binding |
